To fix the notation:
B1: human α-catenin Δ1–81 (domain or fragment, UniProt P35221 82-906, looked up)
chain: ESQFLKEELVAAVEDVRKQGDLMKAAAGEFADDPCSSVKRGNMVRAARALLSAVTRLLILADMADVYKLLVQLKVVEDGILKLRNAGNEQDLGIQYKALKPEVDKLNIMAAKRQQELKDVGHRDQMAAARGILQKNVPILYTASQACLQHPDVAAYKANRDLIYKQLQQAVTGISNAAQATASDDASQHQGGGGGELAYALNNFDKQIIVDPLSFSEERFRPSLEERLESIISGAALMADSSCTRDDRRERIVAECNAVRQALQDLLSEYMGNAGRKERSDALNSAIDKMTKKTRDLRRQLRKAVMDHVSDSFLETNVPLLVLIEAAKNGNEKEVKEYAQVFREHANKLIEVANLACSISNNEEGVKLVRMSASQLEALCPQVINAALALAAKPQSKLAQENMDLFKEQWEKQVRVLTDAVDDITSIDDFLAVSENHILEDVNKCVIALQEKDVDGLDRTAGAIRGRAARVIHVVTSEMDNYEPGVYTEKVLEATKLLSNTVMPRFTEQVEAAVEALSSDPAQPMDENEFIDASRLVYDGIRDIRKAVLMIRTPEELDDSDFETEDFDVRSRTSVQTEDDQLIAGQSARAIMAQLPQEQKAKIAEQVASFQEEKSKLDAEVSKWDDSGNDIIVLAKQMCMIMMEMTDFTRGKGPLKNTSDVISAAKKIAEAGSRMDKLGRTIADHCPDSACKQDLLAYLQRIALYCHQLNICSKVKAEVQNLGGELVVSGVDSAMSLIQAAKNLMNAVVQTVKASYVASTKYQKSQGMASLNLPAVSWKMKAPEKKPLVKREKQDETQTKIKRASQKKHVNPVQALSEFKAMDSI
notes: also called human dimeric α-catenin Δ1–81; human monomeric α-catenin Δ1–81; source: E. coli BL21(DE3) (said of all α-catenin constructs)
B2: full-length human α-catenin (residues 1–906) (natural protein, UniProt P35221 1-906, looked up)
chain: MTAVHAGNINFKWDPKSLEIRTLAVERLLEPLVTQVTTLVNTNSKGPSNKKRGRSKKAHVLAASVEQATENFLEKGDKIAKESQFLKEELVAAVEDVRKQGDLMKAAAGEFADDPCSSVKRGNMVRAARALLSAVTRLLILADMADVYKLLVQLKVVEDGILKLRNAGNEQDLGIQYKALKPEVDKLNIMAAKRQQELKDVGHRDQMAAARGILQKNVPILYTASQACLQHPDVAAYKANRDLIYKQLQQAVTGISNAAQATASDDASQHQGGGGGELAYALNNFDKQIIVDPLSFSEERFRPSLEERLESIISGAALMADSSCTRDDRRERIVAECNAVRQALQDLLSEYMGNAGRKERSDALNSAIDKMTKKTRDLRRQLRKAVMDHVSDSFLETNVPLLVLIEAAKNGNEKEVKEYAQVFREHANKLIEVANLACSISNNEEGVKLVRMSASQLEALCPQVINAALALAAKPQSKLAQENMDLFKEQWEKQVRVLTDAVDDITSIDDFLAVSENHILEDVNKCVIALQEKDVDGLDRTAGAIRGRAARVIHVVTSEMDNYEPGVYTEKVLEATKLLSNTVMPRFTEQVEAAVEALSSDPAQPMDENEFIDASRLVYDGIRDIRKAVLMIRTPEELDDSDFETEDFDVRSRTSVQTEDDQLIAGQSARAIMAQLPQEQKAKIAEQVASFQEEKSKLDAEVSKWDDSGNDIIVLAKQMCMIMMEMTDFTRGKGPLKNTSDVISAAKKIAEAGSRMDKLGRTIADHCPDSACKQDLLAYLQRIALYCHQLNICSKVKAEVQNLGGELVVSGVDSAMSLIQAAKNLMNAVVQTVKASYVASTKYQKSQGMASLNLPAVSWKMKAPEKKPLVKREKQDETQTKIKRASQKKHVNPVQALSEFKAMDSI
notes: Cloned into pGEX-6P-1; residues of the PreScission site may remain at the N-terminus after cleavage; The same protein elutes as a monomer peak and a dimer peak, which were pooled separately; also called human monomeric α-catenin; human dimeric α-catenin; source: E. coli BL21(DE3), purified (GST Sepharose, PreScission cleavage, Superdex S200; monomer and dimer peaks pooled separately); not shown: …
B3: human α-catenin (residues 22–906) (domain or fragment, UniProt P35221 22-906, looked up)
chain: TLAVERLLEPLVTQVTTLVNTNSKGPSNKKRGRSKKAHVLAASVEQATENFLEKGDKIAKESQFLKEELVAAVEDVRKQGDLMKAAAGEFADDPCSSVKRGNMVRAARALLSAVTRLLILADMADVYKLLVQLKVVEDGILKLRNAGNEQDLGIQYKALKPEVDKLNIMAAKRQQELKDVGHRDQMAAARGILQKNVPILYTASQACLQHPDVAAYKANRDLIYKQLQQAVTGISNAAQATASDDASQHQGGGGGELAYALNNFDKQIIVDPLSFSEERFRPSLEERLESIISGAALMADSSCTRDDRRERIVAECNAVRQALQDLLSEYMGNAGRKERSDALNSAIDKMTKKTRDLRRQLRKAVMDHVSDSFLETNVPLLVLIEAAKNGNEKEVKEYAQVFREHANKLIEVANLACSISNNEEGVKLVRMSASQLEALCPQVINAALALAAKPQSKLAQENMDLFKEQWEKQVRVLTDAVDDITSIDDFLAVSENHILEDVNKCVIALQEKDVDGLDRTAGAIRGRAARVIHVVTSEMDNYEPGVYTEKVLEATKLLSNTVMPRFTEQVEAAVEALSSDPAQPMDENEFIDASRLVYDGIRDIRKAVLMIRTPEELDDSDFETEDFDVRSRTSVQTEDDQLIAGQSARAIMAQLPQEQKAKIAEQVASFQEEKSKLDAEVSKWDDSGNDIIVLAKQMCMIMMEMTDFTRGKGPLKNTSDVISAAKKIAEAGSRMDKLGRTIADHCPDSACKQDLLAYLQRIALYCHQLNICSKVKAEVQNLGGELVVSGVDSAMSLIQAAKNLMNAVVQTVKASYVASTKYQKSQGMASLNLPAVSWKMKAPEKKPLVKREKQDETQTKIKRASQKKHVNPVQALSEFKAMDSI
notes: Modified pET28 vector; By the printed forward primer the residues GPHM would remain before T22 after PreScission cleavage (surmise); The dimer was used for the complex with F-actin; in the map only residues 710–871 are ordered; also called Δ1–21 α-catenin; human dimeric α-catenin Δ1–21; source: E. coli BL21(DE3), purified (HisTrap, PreScission cleavage, reverse HisTrap, Superdex S200); not shown: …

The record followed here is PMC10020564, “Distinct inter-domain interactions of dimeric versus monomeric α-catenin link cell junctions to filaments” (Communications Biology, 2023).

The data set deals with the molecule itself. The experiment in a line: SEC-MALS; separately pooled dimer peak of a size exclusion run; Superdex S200 10/300 GL, 20 mM Tris-HCl pH 8, 150 mM NaCl, 0.2 mM TCEP, 0.5 ml/min. On the technique in general: Size exclusion chromatography separates by hydrodynamic size, large species first.
Broadly, the stoichiometry N is a count of units in the complex or per binding partner. As for B1, the “stoichiometry N” value was determined as 2.
Next, B2: 2; B3: 2.
